This is an account of results in paper PMC7117775, “CsIVP functions in vasculature development and downy mildew resistance in cucumber”.

Data set [1] concerns the target T1, CsIVP (Irregular Vasculature Patterning, bHLH) (Cucumis sativus, UniProt A0A0A0KHS6 1-223).
T1 sequence: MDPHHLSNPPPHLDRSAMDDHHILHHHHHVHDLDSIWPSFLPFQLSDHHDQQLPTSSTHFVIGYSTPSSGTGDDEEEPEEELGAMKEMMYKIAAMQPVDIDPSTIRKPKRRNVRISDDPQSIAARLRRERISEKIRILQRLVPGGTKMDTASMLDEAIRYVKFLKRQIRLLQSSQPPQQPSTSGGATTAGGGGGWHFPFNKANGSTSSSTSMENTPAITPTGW
Description: EMSA; 80, 120, 160 fmol probe; cold competitor; LightShift Chemiluminescent EMSA Kit (Thermo 20148), manufacturer's instructions; buffer, salt, pH and temperature not stated. The settings on record: protein: recombinant; tags: pET-28a vector (Ni-NTA purified); chain copies: 2; label: 5' biotin on forward strand; blunt. Background: A gel shift assay detects complexes by their altered migration in electrophoresis.

Data set [2] concerns the target T1, CsIVP (Irregular Vasculature …). The data set can be described thus: EMSA; 80, 120, 160 fmol probe; LightShift Chemiluminescent EMSA Kit (Thermo 20148), manufacturer's instructions; buffer, salt, pH and temperature not stated. To be noted: protein: recombinant; tags: pET-28a vector (Ni-NTA purified); chain copies: 2; label: 5' biotin on forward strand; blunt.

B1: CsYAB5 promoter probe (-1626) (dsDNA)
DNA 1: TATAAAATTGTTTTAACCAATTGAGTTATATACATTCAA
DNA 2: TTGAATGTATATAACTCAATTGGTTAAAACAATTTTATA
In the case of B1, the binding result in data set [1] is “binds”.

B2: CsAUX4 promoter probe (-1492) (dsDNA)
DNA 1: AGGGATGGAGGTGAGCACATGGGAGGGCCGCTGCC
DNA 2: GGCAGCGGCCCTCCCATGTGCTCACCTCCATCCCT
B2: the binding result in data set [1] is on record as “binds”.

B3: CsCCR1 promoter probe (-1939) (dsDNA)
DNA 1: CAAAATTGACTTCTTCCACTTGTGCAGTCAAACAGTTC
DNA 2: GAACTGTTTGACTGCACAAGTGGAAGAAGTCAATTTTG
On to B3, for which the binding result in data set [2] is on record as “no binding”.

B4: CsBP promoter probe (-333) (dsDNA)
DNA 1: ACTTTAATGGCGCACCCTCAACTGAGATATCTATACCC
DNA 2: GGGTATAGATATCTCAGTTGAGGGTGCGCCATTAAAGT
Consider B4, for which the binding result in data set [1] was “binds”.
